In US20220372463A1:

Target: Streptococcus pyogenes Cas9 endonuclease (Streptococcus pyogenes) (UniProt Q99ZW2)
Assay: cell-based or functional assay

Substance	fold decrease of the transition rate to the inhibited state relative to CascAID with wild-type AcrIIA4 [fold]	kact (constant activation parameter for all CascAID variants; best fit of the ODE model to editing data) [h⁻¹]	γ4 (inhibitor strength: fold-change relative to the inhibition rate of CascAID wt; best fit of the ODE model) [unitless]	γ3 (inhibitor strength: fold-change relative to the inhibition rate of CascAID wt; best fit of the ODE model) [unitless]	kinh, CascAID (inhibition parameter for CascAID wt; best fit of the ODE model to editing data; marked not identifiable) [h⁻¹]
AcrIIA4 D14A/G38A as the auto-inhibitory domain of CascAID D14A/G38A	19	1.13	0.0519	–	–
AcrIIA4 N39A as the auto-inhibitory domain of CascAID N39A	16	1.13	–	0.0609	–
wild-type AcrIIA4 as the auto-inhibitory domain of CascAID wt (Cas9 fused to wild-type AcrIIA4)	–	1.13	–	–	618
